Measured values: US20250236850

Tests used:
[1] = molecular target: T1, AN4702 protein of Aspergillus nidulans (uniprot entry Q5B428), native N-terminally histidine-methylated protein, Q5B428
T1 chain: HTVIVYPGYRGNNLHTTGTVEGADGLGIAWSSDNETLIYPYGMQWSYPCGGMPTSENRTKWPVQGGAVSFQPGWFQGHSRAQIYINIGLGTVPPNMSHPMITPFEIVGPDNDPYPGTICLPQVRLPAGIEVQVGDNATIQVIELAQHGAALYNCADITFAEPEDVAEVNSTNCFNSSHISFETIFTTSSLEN

[2] = molecular target: T2, AA9A LPMO from Lentinus similis (LsAA9A), secreted by K. phaffii, His6-tagged
T2 chain: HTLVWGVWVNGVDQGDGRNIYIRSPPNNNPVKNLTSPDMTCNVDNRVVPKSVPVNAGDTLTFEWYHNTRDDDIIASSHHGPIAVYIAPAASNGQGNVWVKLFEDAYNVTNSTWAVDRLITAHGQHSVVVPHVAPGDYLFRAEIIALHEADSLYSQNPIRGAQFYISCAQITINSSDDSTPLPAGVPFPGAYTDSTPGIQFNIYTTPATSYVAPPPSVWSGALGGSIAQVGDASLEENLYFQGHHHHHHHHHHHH

B1: Truncated variant of AN4663 lacking the transmembrane region (positions 1-224) (protein)
chain: LNNIIADDGFALVARQDSTTGYISVLDNLEDGFRVMRCDHSLLGGQWIKKRPNYTPPAVKDPIYAVFTMLEAVRLVETAHGIPRADAGSNALVIGLGIGTTPGALISHGIDTTIVEIDPVVHKYALQYFDLPENHTPIIEDARAFVQRSRNAPQPKQYDYIVHDVFTGGAEPVELFTYEFISGLHALLKDDGVIAINYAGDISLYSTALSIRTIKSIFPTCRLFREAAAPEIGPDFTNMVIFCTKSRGAPITFRDPVPEDFLGSRFRSRYLVPKHEVDAAQFDNVGLEDGPQGHGRRVLVDKEVGRLHKYQDRSALEHWGIMRTVLPDRVWEGW
With B1 the “PRM quantification of methylated and unmethylated N-terminal peptide after truncation of AN4663” value [1] was “the expression of this variant abolished the N-terminal histidine methylation capacity of the enzyme”.

B2: AN4663 N-terminal histidine methyltransferase (NHMT) from Aspergillus nidulans (protein)
chain: MAPFRSIYEKDATKKLVVGAALLVLAAFYSYVFLLTLAPVYGSTPSHIFHGYGVGIAGVAGWFSKDIVDRVSGRKAIYAIPVLAFFLPVVQYFVSQQSSALGNPAGPIFTEVLALYPLVLLSVACAGKLVQAGLNLQRHGDLVAEHIPLLGSYVIYSAGEHLIKAFLSRFIGSTVLLSRAGLQILIAIFYAAAVPSKALLLAIPAFLFSVTSNTHLPLGHTTTALNNIIADDGFALVARQDSTTGYISVLDNLEDGFRVMRCDHSLLGGQWIKKRPNYTPPAVKDPIYAVFTMLEAVRLVETAHGIPRADAGSNALVIGLGIGTTPGALISHGIDTTIVEIDPVVHKYALQYFDLPENHTPIIEDARAFVQRSRNAPQPKQYDYIVHDVFTGGAEPVELFTYEFISGLHALLKDDGVIAINYAGDISLYSTALSIRTIKSIFPTCRLFREAAAPEIGPDFTNMVIFCTKSRGAPITFRDPVPEDFLGSRFRSRYLVPKHEVDAAQFDNVGLEDGPQGHGRRVLVDKEVGRLHKYQDRSALEHWGIMRTVLPDRVWEGW
For B2, the “methylation stoichiometry of the N-terminal peptide of secreted LsAA9A (targeted MS), Amy signal peptide construct, co-expression in K. phaffii” value [2] was “a methylation stoichiometry on average of 65% of the peptides for the Amy signal peptide”, the “methylation stoichiometry of the N-terminal peptide of secreted LsAA9A (targeted MS), native signal peptide construct, co-expression in K. phaffii” value [2] was 29% for the native signal peptide and the “PRM assay of N-terminal histidine methylation of the AN4702 peptide in A. nidulans knockout strains” value [1] was “the knockout of the gene [SEQ ID NO.: 1] encoding AN4663 (uniprot entry Q5B467) [SEQ ID NO.: 2] abolished the N-terminal histidine methylation on the monitored peptides and conversely, the unmethylated form was observed”.

B3: AN4663 with E340A substitution (strain NID2787) (protein)
chain: MAPFRSIYEKDATKKLVVGAALLVLAAFYSYVFLLTLAPVYGSTPSHIFHGYGVGIAGVAGWFSKDIVDRVSGRKAIYAIPVLAFFLPVVQYFVSQQSSALGNPAGPIFTEVLALYPLVLLSVACAGKLVQAGLNLQRHGDLVAEHIPLLGSYVIYSAGEHLIKAFLSRFIGSTVLLSRAGLQILIAIFYAAAVPSKALLLAIPAFLFSVTSNTHLPLGHTTTALNNIIADDGFALVARQDSTTGYISVLDNLEDGFRVMRCDHSLLGGQWIKKRPNYTPPAVKDPIYAVFTMLEAVRLVETAHGIPRADAGSNALVIGLGIGTTPGALISHGIDTTIVAIDPVVHKYALQYFDLPENHTPIIEDARAFVQRSRNAPQPKQYDYIVHDVFTGGAEPVELFTYEFISGLHALLKDDGVIAINYAGDISLYSTALSIRTIKSIFPTCRLFREAAAPEIGPDFTNMVIFCTKSRGAPITFRDPVPEDFLGSRFRSRYLVPKHEVDAAQFDNVGLEDGPQGHGRRVLVDKEVGRLHKYQDRSALEHWGIMRTVLPDRVWEGW
For B3, the “PRM assay of N-terminal histidine methylation in A. nidulans (strain NID2787)” value [1] was “Site-directed mutagenesis of this glutamate to an alanine (E340A) lead to a loss of N-terminal histidine methylation generating a similar methylation phenotype to a complete knockout of AN4663”.

B4: N-terminally mRFP-tagged AN4663 (strain NID2789) (protein)
chain: MAPFRSIYEKDATKKLVVGAALLVLAAFYSYVFLLTLAPVYGSTPSHIFHGYGVGIAGVAGWFSKDIVDRVSGRKAIYAIPVLAFFLPVVQYFVSQQSSALGNPAGPIFTEVLALYPLVLLSVACAGKLVQAGLNLQRHGDLVAEHIPLLGSYVIYSAGEHLIKAFLSRFIGSTVLLSRAGLQILIAIFYAAAVPSKALLLAIPAFLFSVTSNTHLPLGHTTTALNNIIADDGFALVARQDSTTGYISVLDNLEDGFRVMRCDHSLLGGQWIKKRPNYTPPAVKDPIYAVFTMLEAVRLVETAHGIPRADAGSNALVIGLGIGTTPGALISHGIDTTIVEIDPVVHKYALQYFDLPENHTPIIEDARAFVQRSRNAPQPKQYDYIVHDVFTGGAEPVELFTYEFISGLHALLKDDGVIAINYAGDISLYSTALSIRTIKSIFPTCRLFREAAAPEIGPDFTNMVIFCTKSRGAPITFRDPVPEDFLGSRFRSRYLVPKHEVDAAQFDNVGLEDGPQGHGRRVLVDKEVGRLHKYQDRSALEHWGIMRTVLPDRVWEGW
With B4 the “PRM assay of N-terminal histidine methylation in A. nidulans (strain NID2789)” value [1] was “methylation of LPMOs was stoichiometric for the N-terminally tagged version”.

B5: C-terminally mRFP-tagged AN4663 (strain NID2794) (protein)
chain: MAPFRSIYEKDATKKLVVGAALLVLAAFYSYVFLLTLAPVYGSTPSHIFHGYGVGIAGVAGWFSKDIVDRVSGRKAIYAIPVLAFFLPVVQYFVSQQSSALGNPAGPIFTEVLALYPLVLLSVACAGKLVQAGLNLQRHGDLVAEHIPLLGSYVIYSAGEHLIKAFLSRFIGSTVLLSRAGLQILIAIFYAAAVPSKALLLAIPAFLFSVTSNTHLPLGHTTTALNNIIADDGFALVARQDSTTGYISVLDNLEDGFRVMRCDHSLLGGQWIKKRPNYTPPAVKDPIYAVFTMLEAVRLVETAHGIPRADAGSNALVIGLGIGTTPGALISHGIDTTIVEIDPVVHKYALQYFDLPENHTPIIEDARAFVQRSRNAPQPKQYDYIVHDVFTGGAEPVELFTYEFISGLHALLKDDGVIAINYAGDISLYSTALSIRTIKSIFPTCRLFREAAAPEIGPDFTNMVIFCTKSRGAPITFRDPVPEDFLGSRFRSRYLVPKHEVDAAQFDNVGLEDGPQGHGRRVLVDKEVGRLHKYQDRSALEHWGIMRTVLPDRVWEGW
B5 was tested, and the “PRM assay of N-terminal histidine methylation in A. nidulans (strain NID2794)” value [1] was “the C-terminal mRFP tagged version was unable to methylate the LPMOs”.
